The subject of series [1] is HeLa Kyoto. The series is described as follows: solubility in G1/S (NP-40 vs SDS abundance) (log2 ratio); higher = more soluble. As to conditions: cell cycle stage: G1/S.
The test system of series [2] is HeLa Kyoto. The series is described as follows: thermal stability score vs G1/S (z-score of summed log2 fold changes over temperatures); higher = more thermally stable than in G1/S.
Series [3] deals with HeLa Kyoto. Briefly: solubility change mitosis vs G1/S (difference of NP-40 vs SDS log2 ratios) (log2 ratio difference); higher = more soluble in mitosis.
Series [4] concerns HeLa Kyoto. The series is described as follows: melting temperature (median over replicates), in situ; higher = more thermally stable.
Setting [5] is: cell cycle stage: early G1 (4.5 h after nocodazole release).

The values that follow come from the supplement of paper PMC5998384.
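Throughout, for melting temperature (median over replicates), in situ: HeLa Kyoto cells synchronized by double thymidine or nocodazole block, proteins quantified by TMT10plex mass spectrometry, three independent biological replicates.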
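Throughout, for solubility change mitosis vs G1/S (difference of NP-40 vs SDS log2 ratios): synchronized HeLa Kyoto cells (double thymidine block for G1/S, nocodazole release for mitosis), protein amounts in NP-40 versus SDS lysates quantified by mass spectrometry, three biological replicates.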
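Throughout, for solubility in G1/S (NP-40 vs SDS abundance): HeLa Kyoto cells arrested at G1/S by double thymidine block, proteins quantified by TMT10plex mass spectrometry in mild NP-40 versus SDS extracts, three biological replicates.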
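Throughout, for thermal stability score vs G1/S (z-score of summed log2 fold changes over temperatures): synchronized HeLa Kyoto cells, proteins quantified by TMT10plex mass spectrometry, three biological replicates, mitosis taken 0.5 h after nocodazole release, G1/S directly after double thymidine block.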

On to “MPSATSHSGSGSKSSGPPPPSGSSGSEAAAGAGAAAPASQHPATGTGAVQTEAMKQILGVIDKKLRNLEKKKGKLDDYQERMNKGERLNQDQLDAVSKYQEVTNNLEFAKELQRSFMALSQDIQKTIKKTARREQLMREEAEQKRLKTVLELQYVLDKLGDDEVRTDLKQGLNGVPILSEEELSLLDEFYKLVDPERDMSLRLNEQYEHASIHLWDLLEGKEKPVCGTTYKVLKEIVERVFQSNYFDSTHNHQNGLCEEEEAASAPAVEDQVPEAEPEPAEEYTEQSEVESTEYVNRQFMAETQFTSGEKEQVDEWTVETVEVVNSLQQQPQAASPSVPEPHSLTPVAQADPLVRRQRVQDLMAQMQGPYNFIQDSMLDFENQTLDPAIVSAQPMNPTQNMDMPQLVCPPVHSESRLAQPNQVPVQPEATQVPLVSSTSEGYTASQPLYQPSHATEQRPQKEPIDQIQATISLNTDQTTASSSLPAASQPQVFQAGTSKPLHSSGINVNAAPFQSMQTVFNMNAPVPPVNEPETLKQQNQYQASYNQSFSSQPHQVEQTELQQEQLQTVVGTYHGSPDQSHQVTGNHQQPPQQNTGFPRSNQPYYNSRGVSRGGSRGARGLMNGYRGPANGFRGGYDGYRPSFSNTPNSGYTQSQFSAPRDYSGYQRDGYQQNFKRGSGQSGPRGAPRGRGGPPRPNRGMPQMNTQQVN [CAPRIN1]”, for which the “solubility in G1/S (log2)” value in series [1] is -0.0442. The thermal stability score in series [2] (setting [5]) was -0.0976; in series [2] (cell cycle stage: mitosis), -1.01. Also, the “solubility change mitosis (log2)” value in series [3] amounted to 0.14. Also, the melting temperature is 54.8 °C in series [4] (cell cycle stage: G1/S) and 54.9 °C in series [4] (cell cycle stage: mitosis).
For the sequence “MPSKSLVMEYLAHPSTLGLAVGVACGMCLGWSLRVCFGMLPKSKTSKTHTDTESEASILGDSGEYKMILVVRNDLKMGKGKVAAQCSHAAVSAYKQIQRRNPEMLKQWEYCGQPKVVVKAPDEETLIALLAHAKMLGLTVSLIQDAGRTQIAPGSQTVLGIGPGPADLIDKVTGHLKLY [PTRH2]”, in series [1], the “solubility in G1/S (log2)” value was 0.447. In addition, the thermal stability score in series [2] (setting [5]) was -0.625; in series [2] (cell cycle stage: mitosis), -2.48. In series [3], the “solubility change mitosis (log2)” value stood at 0.0782. Further, the melting temperature came to 52.3 °C in series [4] (cell cycle stage: G1/S) and 52.6 °C in series [4] (cell cycle stage: mitosis).
For the sequence “MPSPRPVLLRGARAALLLLLPPRLLARPSLLLRRSLSAASCPPISLPAAASRSSMDGAGAEEVLAPLRLAVRQQGDLVRKLKEDKAPQVDVDKAVAELKARKRVLEAKELALQPKDDIVDRAKMEDTLKRRFFYDQAFAIYGGVSGLYDFGPVGCALKNNIIQTWRQHFIQEEQILEIDCTMLTPEPVLKTSGHVDKFADFMVKDVKNGECFRADHLLKAHLQKLMSDKKCSVEKKSEMESVLAQLDNYGQQELADLFVNYNVKSPITGNDLSPPVSFNLMFKTFIGPGGNMPGYLRPETAQGIFLNFKRLLEFNQGKLPFAAAQIGNSFRNEISPRSGLIRVREFTMAEIEHFVDPSEKDHPKFQNVADLHLYLYSAKAQVSGQSARKMRLGDAVEQGVINNTVLGYFIGRIYLYLTKVGISPDKLRFRQHMENEMAHYACDCWDAESKTSYGWIEIVGCADRSCYDLSCHARATKVPLVAEKPLKEPKTVNVVQFEPSKGAIGKAYKKDAKLVMEYLAICDECYITEMEMLLNEKGEFTIETEGKTFQLTKDMINVKRFQKTLYVEEVVPNVIEPSFGLGRIMYTVFEHTFHVREGDEQRTFFSFPAVVAPFKCSVLPLSQNQEFMPFVKELSEALTRHGVSHKVDDSSGSIGRRYARTDEIGVAFGVTIDFDTVNKTPHTATLRDRDSMRQIRAEISELPSIVQDLANGNITWADVEARYPLFEGQETGKKETIEE [GARS]”, in series [1], the “solubility in G1/S (log2)” value came out at 0.0194. Also, the thermal stability score in series [2] (setting [5]) was -2.91; in series [2] (cell cycle stage: mitosis) it was -2.03. Besides, in series [3], the “solubility change mitosis (log2)” value is -0.136. Also, the melting temperature amounted to 59.4 °C in series [4] (cell cycle stage: G1/S) and 59.5 °C in series [4] (cell cycle stage: mitosis).
With “MPSTDLLMLKAFEPYLEILEVYSTKAKNYVNGHCTKYEPWQLIAWSVVWTLLIVWGYEFVFQPESLWSRFKKKCFKLTRKMPIIGRKIQDKLNKTKDDISKNMSFLKVDKEYVKALPSQGLSSSAVLEKLKEYSSMDAFWQEGRASGTVYSGEEKLTELLVKAYGDFAWSNPLHPDIFPGLRKIEAEIVRIACSLFNGGPDSCGCVTSGGTESILMACKAYRDLAFEKGIKTPEIVAPQSAHAAFNKAASYFGMKIVRVPLTKMMEVDVRAMRRAISRNTAMLVCSTPQFPHGVIDPVPEVAKLAVKYKIPLHVDACLGGFLIVFMEKAGYPLEHPFDFRVKGVTSISADTHKYGYAPKGSSLVLYSDKKYRNYQFFVDTDWQGGIYASPTIAGSRPGGISAACWAALMHFGENGYVEATKQIIKTARFLKSELENIKGIFVFGNPQLSVIALGSRDFDIYRLSNLMTAKGWNLNQLQFPPSIHFCITLLHARKRVAIQFLKDIRESVTQIMKNPKAKTTGMGAIYGMAQTTVDRNMVAELSSVFLDSLYSTDTVTQGSQMNGSPKPH [SGPL1]”, the “solubility in G1/S (log2)” value in series [1] was -0.0885. Besides, the thermal stability score in series [2] (setting [5]) was -0.294; in series [2] (cell cycle stage: mitosis), 0.467. In series [3], the “solubility change mitosis (log2)” value was -0.101. For the same sequence, the melting temperature in series [4] (cell cycle stage: G1/S) is 53.3 °C; in series [4] (cell cycle stage: mitosis), 54.3 °C.
“MPVAVGPYGQSQPSCFDRVKMGFVMGCAVGMAAGALFGTFSCLRIGMRGRELMGGIGKTMMQSGGTFGTFMAIGMGIRC [ROMO1]”: the “solubility in G1/S (log2)” value in series [1] was -0.104. Also, the thermal stability score in series [2] (setting [5]) was -0.746; in series [2] (cell cycle stage: mitosis), -1.2. Also, the “solubility change mitosis (log2)” value in series [3] was found to be 0.0021. The melting temperature in series [4] (cell cycle stage: G1/S) worked out at 54.5 °C; in series [4] (cell cycle stage: mitosis), 54.9 °C.
With “MPVFHTRTIESILEPVAQQISHLVIMHEEGEVDGKAIPDLTAPVAAVQAAVSNLVRVGKETVQTTEDQILKRDMPPAFIKVENACTKLVQAAQMLQSDPYSVPARDYLIDGSRGILSGTSDLLLTFDEAEVRKIIRVCKGILEYLTVAEVVETMEDLVTYTKNLGPGMTKMAKMIDERQQELTHQEHRVMLVNSMNTVKELLPVLISAMKIFVTTKNSKNQGIEEALKNRNFTVEKMSAEINEIIRVLQLTSWDEDAWASKDTEAMKRALASIDSKLNQAKGWLRDPSASPGDAGEQAIRQILDEAGKVGELCAGKERREILGTCKMLGQMTDQVADLRARGQGSSPVAMQKAQQVSQGLDVLTAKVENAARKLEAMTNSKQSIAKKIDAAQNWLADPNGGPEGEEQIRGALAEARKIAELCDDPKERDDILRSLGEISALTSKLADLRRQGKGDSPEARALAKQVATALQNLQTKTNRAVANSRPAKAAVHLEGKIEQAQRWIDNPTVDDRGVGQAAIRGLVAEGHRLANVMMGPYRQDLLAKCDRVDQLTAQLADLAARGEGESPQARALASQLQDSLKDLKARMQEAMTQEVSDVFSDTTTPIKLLAVAATAPPDAPNREEVFDERAANFENHSGKLGATAEKAAAVGTANKSTVEGIQASVKTARELTPQVVSAARILLRNPGNQAAYEHFETMKNQWIDNVEKMTGLVDEAIDTKSLLDASEEAIKKDLDKCKVAMANIQPQMLVAGATSIARRANRILLVAKREVENSEDPKFREAVKAASDELSKTISPMVMDAKAVAGNISDPGLQKSFLDSGYRILGAVAKVREAFQPQEPDFPPPPPDLEQLRLTDELAPPKPPLPEGEVPPPRPPPPEEKDEEFPEQKAGEVINQPMMMAARQLHDEARKWSSKPGIPAAEVGIGVVAEADAADAAGFPVPPDMEDDYEPELLLMPSNQPVNQPILAAAQSLHREATKWSSKGNDIIAAAKRMALLMAEMSRLVRGGSGTKRALIQCAKDIAKASDEVTRLAKEVAKQCTDKRIRTNLLQVCERIPTISTQLKILSTVKATMLGRTNISDEESEQATEMLVHNAQNLMQSVKETVREAEAASIKIRTDAGFTLRWVRKTPWYQ [VCL]”, in series [1], the “solubility in G1/S (log2)” value was found to be 0.182. In addition, the thermal stability score in series [2] (setting [5]) is -1.64; in series [2] (cell cycle stage: mitosis), -1.78. Besides, the “solubility change mitosis (log2)” value in series [3] was -0.0931. In addition, the figures for the melting temperature in series [4] (cell cycle stage: G1/S) and in series [4] (cell cycle stage: mitosis) were 56.4 °C and 55.4 °C, respectively.
